{"source": "the supplement of paper PMC10567573", "parents": {"B1": {"name": "KRT71 (parent)", "chain": "FGSRSLYSLGGVRSLNVASGSGKS"}}}
{"variants_of": "B1", "experiment": "protein stability index of a GFP-peptide fusion (GPS, HEK-293T) (PSI 1-6); higher = more stable", "conditions": "c terminus: a fixed tail appended"}
{"variant": "FGSRSLYSQGGVRSLNVASGSGKS", "protein stability index": 2.79}
{"variant": "FGSRSLYSSGGVRSLNVASGSGKS", "protein stability index": 2.18}
{"variant": "FGSRSLYSNGGVRSLNVASGSGKS", "protein stability index": 2.51}
{"variant": "FGSRSLYSEGGVRSLNVASGSGKS", "protein stability index": 2.59}
{"variant": "FGSRSLYSFGGVRSLNVASGSGKS", "protein stability index": 1.88}
{"variant": "FGSRSLYSWGGVRSLNVASGSGKS", "protein stability index": 1.87}
{"variant": "FGSRSLYSGGGVRSLNVASGSGKS", "protein stability index": 2.66}
{"variant": "FGSRSLYSPGGVRSLNVASGSGKS", "protein stability index": 2.6}
{"variant": "FGSRSLYSAGGVRSLNVASGSGKS", "protein stability index": 2.5}
{"variant": "FGSRSLYSVGGVRSLNVASGSGKS", "protein stability index": 2.62}
{"variant": "FGSRSLYSMGGVRSLNVASGSGKS", "protein stability index": 1.83}
{"variant": "FGSRSLYSYGGVRSLNVASGSGKS", "protein stability index": 1.77}
{"variant": "FGSRSLYSRGGVRSLNVASGSGKS", "protein stability index": 2.56}
{"variant": "FGSRSLYSCGGVRSLNVASGSGKS", "protein stability index": 2.12}
{"variant": "FGSQSLYSLGGVRSLNVASGSGKS", "protein stability index": 2.5}
{"variant": "FGSPSLYSLGGVRSLNVASGSGKS", "protein stability index": 1.35}
{"variant": "FGSISLYSLGGVRSLNVASGSGKS", "protein stability index": 1.7}
{"variant": "FGSDSLYSLGGVRSLNVASGSGKS", "protein stability index": 2.44}
{"variant": "FGSNSLYSLGGVRSLNVASGSGKS", "protein stability index": 2.12}
{"variant": "FGSWSLYSLGGVRSLNVASGSGKS", "protein stability index": 1.62}
{"variant": "FGSASLYSLGGVRSLNVASGSGKS", "protein stability index": 2.71}
{"variant": "FGSLSLYSLGGVRSLNVASGSGKS", "protein stability index": 1.75}
{"variant": "FGSKSLYSLGGVRSLNVASGSGKS", "protein stability index": 2.14}
{"variant": "FGSTSLYSLGGVRSLNVASGSGKS", "protein stability index": 2}
{"variant": "FGSSSLYSLGGVRSLNVASGSGKS", "protein stability index": 2.31}
{"variant": "FGSVSLYSLGGVRSLNVASGSGKS", "protein stability index": 1.52}
{"variant": "FGSFSLYSLGGVRSLNVASGSGKS", "protein stability index": 1.58}
{"variant": "FGSMSLYSLGGVRSLNVASGSGKS", "protein stability index": 1.88}
{"variant": "FGSHSLYSLGGVRSLNVASGSGKS", "protein stability index": 2.15}
{"variant": "FGSYSLYSLGGVRSLNVASGSGKS", "protein stability index": 2.77}
{"variant": "FGSESLYSLGGVRSLNVASGSGKS", "protein stability index": 2.44}
{"variant": "FGSCSLYSLGGVRSLNVASGSGKS", "protein stability index": 2.35}
{"variant": "FGSGSLYSLGGVRSLNVASGSGKS", "protein stability index": 2.56}
{"variant": "FGSRSLYKLGGVRSLNVASGSGKS", "protein stability index": 2.14}
{"variant": "FGSRSLYGLGGVRSLNVASGSGKS", "protein stability index": 2}
{"variant": "FGSRSLYNLGGVRSLNVASGSGKS", "protein stability index": 2.4}
{"variant": "FGSRSLYRLGGVRSLNVASGSGKS", "protein stability index": 1.69}
{"variant": "FGSRSLYCLGGVRSLNVASGSGKS", "protein stability index": 2.1}
{"variant": "FGSRSLYVLGGVRSLNVASGSGKS", "protein stability index": 2.23}
{"variant": "FGSRSLYELGGVRSLNVASGSGKS", "protein stability index": 2.75}
{"variant": "FGSRSLYALGGVRSLNVASGSGKS", "protein stability index": 2.17}
{"variant": "FGSRSLYHLGGVRSLNVASGSGKS", "protein stability index": 2.89}
{"variant": "FGSRSLYTLGGVRSLNVASGSGKS", "protein stability index": 1.89}
{"variant": "FGSRSLYPLGGVRSLNVASGSGKS", "protein stability index": 1.72}
{"variant": "FGSRSLYDLGGVRSLNVASGSGKS", "protein stability index": 3.44}
{"variant": "FGSRSLYQLGGVRSLNVASGSGKS", "protein stability index": 1.72}
{"variant": "FGSRSLYYLGGVRSLNVASGSGKS", "protein stability index": 1.2}
{"variant": "FGSRSLYILGGVRSLNVASGSGKS", "protein stability index": 1.54}
{"variant": "FGSRSLYFLGGVRSLNVASGSGKS", "protein stability index": 1.21}
{"variant": "FGSRSLYLLGGVRSLNVASGSGKS", "protein stability index": 2.2}
{"variant": "FGSRSLYMLGGVRSLNVASGSGKS", "protein stability index": 1.38}
{"variant": "FGSRSLYWLGGVRSLNVASGSGKS", "protein stability index": 2.62}
{"variant": "FGSRSLSSLGGVRSLNVASGSGKS", "protein stability index": 3.89}
{"variant": "FGSRSLESLGGVRSLNVASGSGKS", "protein stability index": 4.17}
{"variant": "FGSRSLNSLGGVRSLNVASGSGKS", "protein stability index": 3.26}
{"variant": "FGSRSLKSLGGVRSLNVASGSGKS", "protein stability index": 3.02}
{"variant": "FGSRSLWSLGGVRSLNVASGSGKS", "protein stability index": 2.05}
{"variant": "FGSRSLVSLGGVRSLNVASGSGKS", "protein stability index": 2.83}
{"variant": "FGSRSLISLGGVRSLNVASGSGKS", "protein stability index": 2.32}
{"variant": "FGSRSLTSLGGVRSLNVASGSGKS", "protein stability index": 2.55}
{"variant": "FGSRSLLSLGGVRSLNVASGSGKS", "protein stability index": 1.6}
{"variant": "FGSRSLRSLGGVRSLNVASGSGKS", "protein stability index": 3.57}
{"variant": "FGSRSLGSLGGVRSLNVASGSGKS", "protein stability index": 2.81}
{"variant": "FGSRSLDSLGGVRSLNVASGSGKS", "protein stability index": 3.53}
{"variant": "FGSRSLPSLGGVRSLNVASGSGKS", "protein stability index": 3.75}
{"variant": "FGSRSLASLGGVRSLNVASGSGKS", "protein stability index": 3.46}
{"variant": "FGSRSLQSLGGVRSLNVASGSGKS", "protein stability index": 3.91}
{"variant": "FGSRSLMSLGGVRSLNVASGSGKS", "protein stability index": 2.54}
{"variant": "FGSRSLHSLGGVRSLNVASGSGKS", "protein stability index": 2.98}
{"variant": "FGSRSLCSLGGVRSLNVASGSGKS", "protein stability index": 2.48}
{"variant": "FGSRSLFSLGGVRSLNVASGSGKS", "protein stability index": 3.01}
{"variant": "VGSRSLYSLGGVRSLNVASGSGKS", "protein stability index": 3.81}
{"variant": "TGSRSLYSLGGVRSLNVASGSGKS", "protein stability index": 3.59}
{"variant": "YGSRSLYSLGGVRSLNVASGSGKS", "protein stability index": 1.64}
{"variant": "WGSRSLYSLGGVRSLNVASGSGKS", "protein stability index": 2.16}
{"variant": "FLSRSLYSLGGVRSLNVASGSGKS", "protein stability index": 2.45}
{"variant": "FSSRSLYSLGGVRSLNVASGSGKS", "protein stability index": 1.99}
{"variant": "FVSRSLYSLGGVRSLNVASGSGKS", "protein stability index": 3.98}
{"variant": "FNSRSLYSLGGVRSLNVASGSGKS", "protein stability index": 2.58}
{"variant": "FYSRSLYSLGGVRSLNVASGSGKS", "protein stability index": 2.08}
{"variant": "FHSRSLYSLGGVRSLNVASGSGKS", "protein stability index": 1.32}
{"variant": "FQSRSLYSLGGVRSLNVASGSGKS", "protein stability index": 3.09}
{"variant": "FTSRSLYSLGGVRSLNVASGSGKS", "protein stability index": 1.32}
{"variant": "FFSRSLYSLGGVRSLNVASGSGKS", "protein stability index": 2.33}
{"variant": "FISRSLYSLGGVRSLNVASGSGKS", "protein stability index": 1.78}
{"variant": "FASRSLYSLGGVRSLNVASGSGKS", "protein stability index": 2.02}
{"variant": "FRSRSLYSLGGVRSLNVASGSGKS", "protein stability index": 3.5}
{"variant": "FPSRSLYSLGGVRSLNVASGSGKS", "protein stability index": 2.07}
{"variant": "FWSRSLYSLGGVRSLNVASGSGKS", "protein stability index": 1.8}
{"variant": "FDSRSLYSLGGVRSLNVASGSGKS", "protein stability index": 3.02}
{"variant": "FKSRSLYSLGGVRSLNVASGSGKS", "protein stability index": 3.75}
{"variant": "FMSRSLYSLGGVRSLNVASGSGKS", "protein stability index": 1.99}
{"variant": "FCSRSLYSLGGVRSLNVASGSGKS", "protein stability index": 3.47}
{"variant": "FESRSLYSLGGVRSLNVASGSGKS", "protein stability index": 3.3}
